Laboratory results from the supplement of paper PMC9876800.

System: peptide library, one residue held at a place counted from the S/T acceptor
Assay: relative phosphorylation of the sub-library (ratio to the mean residue at this position); higher = residue favoured
Details: human
Method in brief: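 Relative sub-library phosphorylation, a ratio to the mean residue at that position, was obtained by phosphorimaging and densitometry of spots on streptavidin membranes. Before capture, purified recombinant kinases were incubated for 90 min under kinase-specific conditions with 50 μM biotinylated degenerate peptide sub-libraries and 50 μM ATP spiked with γ-32P-ATP. Each sub-library fixed one residue at one position around a central Ser/Thr.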

MAP3K8, construct: aa30-397, sequence (P41279 30-397, looked up): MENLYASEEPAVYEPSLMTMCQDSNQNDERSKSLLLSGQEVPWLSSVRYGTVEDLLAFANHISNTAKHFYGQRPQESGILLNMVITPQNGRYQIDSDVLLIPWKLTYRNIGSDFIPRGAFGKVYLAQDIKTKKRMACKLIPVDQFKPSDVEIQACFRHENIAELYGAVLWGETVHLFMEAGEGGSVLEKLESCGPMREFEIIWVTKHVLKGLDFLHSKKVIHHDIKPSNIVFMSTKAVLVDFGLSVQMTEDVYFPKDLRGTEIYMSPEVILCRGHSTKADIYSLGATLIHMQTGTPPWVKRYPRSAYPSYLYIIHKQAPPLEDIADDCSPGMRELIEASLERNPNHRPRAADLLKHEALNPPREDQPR

MAP3K8, construct: aa30-397 (from UniProt P41279)
relative phosphorylation
Details | at +1 | at +2 | at +3 | at +4 | at -1 | at -2 | at -3 | at -4 | at -5
A fixed | 0.997 | 0.962 | 0.971 | 1.12 | 0.924 | 0.801 | 0.815 | 1.17 | 1.27
D fixed | 0.537 | 0.83 | 0.819 | 1.27 | 1.65 | 2 | 1.57 | 1.62 | 1.47
E fixed | 0.66 | 1.12 | 0.961 | 1.44 | 1.2 | 1.5 | 1.62 | 1.51 | 1.27
F fixed | 1.1 | 0.338 | 0.599 | 0.523 | 0.449 | 0.976 | 0.535 | 0.489 | 0.575
G fixed | 1.23 | 0.736 | 1.2 | 1.09 | 1.31 | 1.23 | 1.36 | 1.51 | 1.41
H fixed | 0.869 | 1.17 | 0.465 | 0.83 | 1.16 | 1.18 | 1.16 | 1.16 | 1.33
I fixed | 0.847 | 0.952 | 0.832 | 0.655 | 0.336 | 0.554 | 0.382 | 0.479 | 0.435
K fixed | 1.31 | 1.61 | 1.57 | 1.4 | 1.37 | 0.653 | 1.08 | 1.11 | 1.47
L fixed | 0.9 | 0.938 | 1.22 | 0.771 | 0.746 | 0.816 | 0.59 | 0.55 | 0.576
M fixed | 1.29 | 0.697 | 1.09 | 0.877 | 0.572 | 0.789 | 0.595 | 0.676 | 0.499
N fixed | 0.996 | 1.67 | 1.03 | 0.997 | 1.5 | 1.35 | 1.32 | 1.35 | 1.25
P fixed | 0.299 | 0.499 | 0.522 | 1.72 | 1.11 | 0.927 | 1.52 | 1.32 | 1.31
Q fixed | 1.36 | 1.9 | 1.21 | 1.09 | 1.28 | 0.913 | 1.16 | 1.01 | 0.943
R fixed | 1.31 | 1.5 | 1.73 | 1.02 | 1.41 | 0.717 | 1.15 | 1.05 | 1.08
V fixed | 1.07 | 1.25 | 0.992 | 0.809 | 0.601 | 0.519 | 0.446 | 0.536 | 0.694
W fixed | 0.806 | 0.382 | 0.78 | 0.689 | 0.591 | 0.805 | 0.835 | 0.707 | 0.834
Y fixed | 1.41 | 0.438 | 1.01 | 0.688 | 0.782 | 1.28 | 0.856 | 0.761 | 0.575
pThr fixed | 1.64 | 1.48 | 0.934 | 1.43 | 1.44 | 1.43 | 1.5 | 1.4 | 1.1
pTyr fixed | 0.716 | 1.83 | 1.08 | 1.17 | 1.51 | 0.871 | 1.49 | 0.882 | 1.1

CAMK4, construct: Full length (from UniProt Q16566)
relative phosphorylation
Details | at +1 | at +2 | at +3 | at +4 | at -1 | at -2 | at -3 | at -4 | at -5
A fixed | 0.518 | 0.587 | 0.723 | 0.805 | 0.66 | 0.761 | 0.61 | 0.815 | 0.598
D fixed | 0.574 | 0.588 | 0.925 | 0.978 | 0.92 | 0.327 | 0.27 | 0.479 | 0.347
E fixed | 0.727 | 0.483 | 0.846 | 0.999 | 0.722 | 0.386 | 0.404 | 0.705 | 0.364
F fixed | 3.32 | 0.95 | 1.12 | 1 | 1.02 | 0.667 | 0.559 | 1.01 | 1.75
G fixed | 0.745 | 0.525 | 0.905 | 0.847 | 0.692 | 0.573 | 0.566 | 0.861 | 0.631
H fixed | 0.86 | 1.99 | 1.19 | 1.08 | 1.18 | 1.3 | 1.32 | 1.17 | 0.781
I fixed | 0.95 | 1.24 | 0.874 | 0.837 | 0.711 | 0.484 | 0.449 | 0.865 | 1.22
K fixed | 0.738 | 0.848 | 0.896 | 0.942 | 1.35 | 2.46 | 2.9 | 1.67 | 1.02
L fixed | 0.822 | 1.25 | 1.04 | 1.06 | 1.05 | 0.547 | 0.432 | 1.01 | 1.85
M fixed | 1.23 | 1.15 | 1 | 0.978 | 0.99 | 0.783 | 0.671 | 1.17 | 1.3
N fixed | 0.977 | 1.08 | 1.21 | 1.14 | 1.36 | 1.06 | 0.723 | 0.962 | 0.651
P fixed | 0.167 | 0.652 | 0.919 | 1.24 | 1.09 | 0.38 | 0.706 | 0.642 | 0.827
Q fixed | 1.12 | 0.862 | 0.904 | 1.17 | 1.21 | 1.34 | 0.854 | 0.951 | 0.755
R fixed | 0.929 | 1.24 | 0.977 | 1.04 | 1.27 | 3.93 | 4.59 | 1.73 | 1.48
V fixed | 0.815 | 1.08 | 0.8 | 0.739 | 0.744 | 0.501 | 0.408 | 0.938 | 0.98
W fixed | 1.25 | 1.16 | 1.39 | 1.12 | 0.93 | 0.744 | 0.841 | 0.949 | 1.1
Y fixed | 1.26 | 1.33 | 1.27 | 1.03 | 1.1 | 0.756 | 0.695 | 1.09 | 1.35
pThr fixed | 0.934 | 0.905 | 0.892 | 1.02 | 0.56 | 0.621 | 0.672 | 0.718 | 0.63
pTyr fixed | 0.811 | 0.793 | 0.936 | 0.824 | 1.09 | 0.424 | 0.482 | 0.653 | 0.661
